# Publication PMC2148182 (The Journal of Cell Biology, 1998)
# Read-outs that look alike come from different tables or passages of the source.
# B1: full-length twinfilin (yeast, recombinant) (natural protein)
# chain: MATQSGIVAEQALLHSLNENLSADGIVIIIAKISPDSTSVHQTQVARSFEELVQLASQEREPLYIFYKPEGLDKYFFVSFIPDGSPVRSRMLYASTKNTLARQVGSNSLSTEQPLITDAQDLVDLKNFDSARPAGQNKPLTHDEEMQIEINKQQALLRKNTSVKLVSQDSASPLSLTFRVNSEKPINEILDSEGKNLIIFQIDPSNETIQIVQSDTCPSVDELYIDLPGPSYTIFRQGDSSFFIYSCPSGSKVKDRMIYASNKNGFINYLKNDQKIAFSKVVEIGDFVELDKSLLMATNKEDSLDHGSNPDLPNKSNLKFNKPKGPLRKRRT
# Assays:
# yeast actin monomers [1] = target: T1, yeast actin monomers (yeast (S. cerevisiae), UniProt P60010 1-375); assay: co-sedimentation
# yeast actin monomers [2] = target: T1, yeast actin monomers; assay: co-sedimentation; remark: listed apart in the source
binder,measurement,setting,value
B1,stoichiometry N,yeast actin monomers [1],1 twinfilin:actin
same,stoichiometry N,yeast actin monomers [2],~1 twinfilin:actin
